The target of this data set is T1, Nogo-66 receptor (NgR)/Fc chimera (rat, UniProt Q99M75 27-447).
T1 sequence: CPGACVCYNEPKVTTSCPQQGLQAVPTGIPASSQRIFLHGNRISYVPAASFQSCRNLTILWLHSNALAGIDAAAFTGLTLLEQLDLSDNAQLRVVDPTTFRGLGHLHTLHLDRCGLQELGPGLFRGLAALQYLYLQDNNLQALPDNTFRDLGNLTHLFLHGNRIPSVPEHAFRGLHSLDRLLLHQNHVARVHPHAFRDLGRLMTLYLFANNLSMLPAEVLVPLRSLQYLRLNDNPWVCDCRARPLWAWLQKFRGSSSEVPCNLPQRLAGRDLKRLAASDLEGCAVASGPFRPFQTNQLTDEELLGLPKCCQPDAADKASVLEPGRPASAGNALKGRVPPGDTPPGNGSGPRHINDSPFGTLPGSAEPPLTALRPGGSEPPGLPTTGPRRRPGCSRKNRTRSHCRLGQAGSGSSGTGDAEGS
The experiment in a line: filter binding; three-point estimate, data not shown; Selection buffer PBS pH 7.4, 3 mM MgCl2; RNA 0.5 nM, NgR/Fc 12.5-500 nM for Kd; competition 20 min at 37 C. As to conditions: protein: commercial; tags: human IgG Fc fusion; chain copies: 2; label: 32P.

B1: Clone 6 (ssRNA)
RNA: GGGUUUACCUAGGUGUAGAUGCUCUCUCUAUUUCAUUCGUAGGCUAUUGGUGCCGCAAAUACUAGCUUUACGAAAGUGACGUCUGAACUGCUUCGAAAA
Turning to B1, the binding result was “binds”.
